The text below walks through data of the RNAGym collection of RNA variant scans (doi:10.7554/elife.80360).

To fix the notation:
B1: Twister Ribozyme (parent)
chain: AACACUGCCAAUGCCGGUCCCAAGCCCGGAUAAAAGUGGAGGGGGCGG

The variants in the series derive from B1. The series can be described thus: self-cleavage, relative activity (ratio to wild type); higher = more cleavage; co-transcriptional.
For the variant AACACUGCCAAUGCCGGUCCCAAGCUCGGAUAAAAGUGAAGGGGGCGG, the self-cleavage amounted to 0.118.

Take AACACUGCCAAUGCCGGUCCCAAGCCAGGUUAAAAGUGGAGGGGGCGG: the self-cleavage is 0.707. For the variant AACACUGCCAAUGCCGGUCCCAAGCCAGGCUAAAAGUGGAGGGGGCGG, the self-cleavage was determined as 0.12. Take AACACUGCCAAUGCCGGUCCCAAGCUCGGAUAAAAGUGGAUGGGGCGG: the self-cleavage came to 0.145. AACACUGCCAAUGCCGGUCCCAAGCUCGGAUAAAAGUGGACGGGGCGG: the self-cleavage stood at 0.154. Regarding AACACUGCCAAUGCCGGUCCCAAGCUCGGAUAAAAGCGGAGGGGGCGG, the self-cleavage amounted to 0.116. The figure for AACACUGCCAAUGCCGGUCCCAAGCUCGGAUAAAAGGGGAGGGGGCGG is 0.118. For AACACUGCCAAUGCCGGUCCCAAGCGCGGAGAAAAGUGGAGGGGGCGG, the self-cleavage was found to be 0.348.

Consider AACACUGCCAAUGCCGGUCCCAAGCUCGGAUAAAAGUGGAGGGGGCGG, for which the self-cleavage worked out at 0.601. AACACUGCCAAUGCCGGUCCCAAGCGCGGAUAAAAGUGUAGGGGGCGG: the self-cleavage was determined as 0.103. AACACUGCCAAUGCCGGUCCCAAGCGCGGAUAAAAGUGCAGGGGGCGG: the self-cleavage worked out at 0.119. Take AACACUGCCAAUGCCGGUCCCAAGCGCGGAUAAAAGUGGAGGGGGCGA: the self-cleavage worked out at 0.107. As for AACACUGCCAAUGCCGGUCCCAAGCCAGGAUAAAAGUGGAGGGGGCGG, the self-cleavage was 0.672. In the case of AACACUGCCAAUGCCGGUCCCAAGCUAGGAUAAAAGUGGAGGGGGCGG, the self-cleavage was 0.102. The figure for AACACUGCCAAUGCCGGUCCCAAGCUUGGAUAAAAGUGGAGGGGGCGG is 0.115; for AACACUGCCAAUGCCGGUCCCAAGCUGGGAUAAAAGUGGAGGGGGCGG it is 0.0958; for AACACUGCCAAUGCCGGUCCCAAGCUCGGAUAAAAAUGGAGGGGGCGG it is 0.0777. For the variant AACACUGCCAAUGCCGGUCCCAAGCUCGGAUAAAAUUGGAGGGGGCGG, the self-cleavage came to 0.133. As to AACACUGCCAAUGCCGGUCCCAAGCUCGGAUAAAAGUCGAGGGGGCGG, the self-cleavage is 0.225. In the case of AACACUGCCAAUGCCGGUCCCAAGCUCGGAUAAAAGUAGAGGGGGCGG it was 0.157; in that of AACACUGCCAAUGCCGGUCCCAAGCUCGGAAAAAAGUGGAGGGGGCGG, 0.432; in that of AACACUGCCAAUGCCGGUCCCAAGCUCAGAUAAAAGUGGAGGGGGCGG, 0.106. AACACUGCCAAUGCCGGUCCCAAGCUCCGAUAAAAGUGGAGGGGGCGG: the self-cleavage turned out to be 0.134. Take AACACUGCCAAUGCCGGUCCCAAGCUCUGAUAAAAGUGGAGGGGGCGG: the self-cleavage worked out at 0.142.

Regarding AACACUGCCAAUGCCGGUCCCAAGCGCGGAUAAAAGUGGAUGGGGCGG, the self-cleavage stood at 0.0825.

With AACACUGCCAAUGCCGGUCCCAAGCGCGGAUAAAAGUGGACGGGGCGG, the self-cleavage came out at 0.0955. With AACACUGCCAAUGCCGGUCCCAAGCUCGGAUUAAAGUGGAGGGGGCGG, the self-cleavage was 0.34. Consider AACACUGCCAAUGCCGGUCCCAAGCUCGGAUCAAAGUGGAGGGGGCGG, for which the self-cleavage was found to be 0.451. AACACUGCCAAUGCCGGUCCCAAGCUCGGAUGAAAGUGGAGGGGGCGG: the self-cleavage was found to be 0.411.

Regarding AACACUGCCAAUGCCGGUCCCAAGCUCGGAUAAAAGUGGAGGGGGCGC, the self-cleavage came to 0.301. Take AACACUGCCAAUGCCGGUCCCAAGCUCGGAUAAAAGUGGAGGGGGCGA: the self-cleavage came to 0.185. In the case of AACACUGCCAAUGCCGGUCCCAAGCUCGGAUAAAAGUGGAGGGGGCGU it was 0.32; in that of AACACUGCCAAUGCCGGUCCCAAGCUCGGAUAAAAGUGGAGGGAGCGG, 0.537.

In the case of AACACUGCCAAUGCCGGUCCCAAGCUCGGAUAAAAGUGGAGGGUGCGG, the self-cleavage is 0.249. AACACUGCCAAUGCCGGUCCCAAGCUCGGAUAAAGGUGGAGGGGGCGG: the self-cleavage was 0.169. Regarding AACACUGCCAAUGCCGGUCCCAAGCUCGGAUAAACGUGGAGGGGGCGG, the self-cleavage amounted to 0.446. Consider AACACUGCCAAUGCCGGUCCCAAGCUCGGAUAAAUGUGGAGGGGGCGG, for which the self-cleavage amounted to 0.553. Turning to AACACUGCCAAUGCCGGUCCCAAGCGCGGAUAAAAGUGGAGCGGGCGG, the self-cleavage turned out to be 0.139. On to AACACUGCCAAUGCCGGUCCCAAGCGCGGAUAAAAGUGGAGAGGGCGG, for which the self-cleavage stood at 0.103.

For the variant AACACUGCCAAUGCCGGUCCCAAGCGCGGAUAAAAGUGGAGGGGACGG, the self-cleavage came out at 0.154. For the variant AACACUGCCAAUGCCGGUCCCAAGCGCGGAUAAAAGUGGAGGGGCCGG, the self-cleavage amounted to 0.117. The figure for AACACUGCCAAUGCCGGUCCCAAGCUCGGAUAAAAGUGGAGGGGUCGG is 0.145. For the variant AACACUGCCAAUGCCGGUCCCAAGCUCGGAUAAGAGUGGAGGGGGCGG, the self-cleavage stood at 0.147. As to AACACUGCCAAUGCCGGUCCCAAGCGCGGAUAAAAGUGGAGGGAGCGG, the self-cleavage was 0.515. Turning to AACACUGCCAAUGCCGGUCCCAAGCGCGGAUAAAAGUGGAGGGUGCGG, the self-cleavage stood at 0.184. For AACACUGCCAAUGCCGGUCCCAAGCUCGGGUAAAAGUGGAGGGGGCGG, the self-cleavage stood at 0.419. As to AACACUGCCAAUGCCGGUCCCAAGCUCGGCUAAAAGUGGAGGGGGCGG, the self-cleavage amounted to 0.0974.

Take AACACUGCCAAUGCCGGUCCCAAGCGCGGAUAAAAGUGGAGGGGGCCG: the self-cleavage amounted to 0.145.

As for AACACUGCCAAUGCCGGUCCCAAGCGCGGAUAAAAGUGGAGGGGGCAG, the self-cleavage came to 0.177. As for AACACUGCCAAUGCCGGUCCCAAGCGCGGAUAAAAGUGGAGGGGGCUG, the self-cleavage was determined as 0.116. For AACACUGCCAAUGCCGGUCCCAAGCUCGUAUAAAAGUGGAGGGGGCGG, the self-cleavage turned out to be 0.204. As for AACACUGCCAAUGCCGGUCCCAAGCUCGCAUAAAAGUGGAGGGGGCGG, the self-cleavage is 0.0821. Regarding AACACUGCCAAUGCCGGUCCCAAGCGCGGAUAAAAGUGGAGGAGGCGG, the self-cleavage was found to be 0.128. Take AACACUGCCAAUGCCGGUCCCAAGCGCGGAUAAAAGUGGAGGCGGCGG: the self-cleavage is 0.141.
